# Test results published in IntAct's records for PubMed 26320582.
# Target: tom1_human TOM1 (UniProt O60784)
# Sequence (O60784 whole entry): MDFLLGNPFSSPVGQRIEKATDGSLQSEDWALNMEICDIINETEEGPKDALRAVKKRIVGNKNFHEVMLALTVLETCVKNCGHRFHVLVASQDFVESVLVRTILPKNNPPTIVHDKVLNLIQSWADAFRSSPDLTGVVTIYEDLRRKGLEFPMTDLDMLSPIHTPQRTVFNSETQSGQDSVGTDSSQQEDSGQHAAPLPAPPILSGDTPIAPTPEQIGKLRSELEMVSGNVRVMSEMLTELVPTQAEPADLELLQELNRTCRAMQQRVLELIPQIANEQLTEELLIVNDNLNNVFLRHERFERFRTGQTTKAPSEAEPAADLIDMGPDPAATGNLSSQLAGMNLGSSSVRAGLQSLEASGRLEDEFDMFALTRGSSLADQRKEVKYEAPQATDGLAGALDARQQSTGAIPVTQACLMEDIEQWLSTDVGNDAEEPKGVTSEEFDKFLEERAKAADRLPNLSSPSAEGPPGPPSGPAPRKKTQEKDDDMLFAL
row,Substance,effect of a mutation on the interaction
1,Toll-interacting protein (Homo sapiens) (from UniProt Q9H0E2-1) D20A;R23A,decreasing interaction strength
2,Toll-interacting protein (Homo sapiens) (from UniProt Q9H0E2-1) F21A,decreasing interaction strength
3,Toll-interacting protein (Homo sapiens) (from UniProt Q9H0E2-1) R9A;V12A,decreasing interaction strength
